Laboratory results as given in patent publication US20200040057A1 (IMMATICS BIOTECHNOLOGIES, published 2020).

Molecular target: HLA-B*07 (human)
Experiment: UV peptide exchange ELISA; ++++ = yield >75%

Row | Binder | peptide exchange yield
1 | SPLEKINSF | > 75%
2 | QPVKKNTL | > 75%
3 | APMHIDRNIL | > 75%
4 | VPRPTSTVGLFL | > 75%
5 | VPILPLNHAL | > 75%
6 | KPRNMTGLDL | > 75%
7 | QPRDGWPMML | > 75%
8 | SPGWAQTQL | > 75%
9 | KPRTPFTTAQL | > 75%
10 | LPQLKPAL | > 75%
11 | LPAPLRISL | > 75%
12 | RPFSAIAEL | > 75%
13 | VPIPTHYFVVL | > 75%
14 | SPRRLVELAGQSL | > 75%
15 | SPASRSISLL | > 75%
16 | RPGPQRTTSV | > 75%
17 | VPLSSYVSI | > 75%
18 | LPGEREAAL | > 75%
19 | LPLDTRTSI | > 75%
20 | SPRSNPVRL | > 75%
21 | APKTSFIAA | > 75%
22 | APLMPLGKTL | > 75%
23 | MPLLADVRL | > 75%
24 | SPYPGSAAF | > 75%
25 | YPLSLALHF | > 75%

Row | Binder | peptide exchange yield
26 | APQVHIFSL | > 75%
27 | SPSFSSTLLSL | > 75%
28 | RPLDTFRVL | > 75%
29 | SPTLRQLDL | > 75%
30 | RPYGCVLRAA | > 75%
31 | SPDPAHLESL | > 75%
32 | LPRGVLEGL | > 75%
33 | GPRTTQSSVL | > 75%
34 | RPPLSQRHTF | > 75%
35 | SPAPWRPWI | > 75%
36 | LPAFSKIGGIL | > 75%
37 | MPYNSAHHCVV | > 75%
38 | LPSLHVLVL | > 75%
39 | FPVQATIDF | > 75%
40 | SPMEAILVSRL | > 75%
41 | SPSSASLTL | > 75%
42 | IPMPRITWL | > 75%
43 | RPKSTLMNF | > 75%
44 | VPYPSPTCV | > 75%
45 | RPNGEVKSEL | > 75%
46 | TPHGITDIL | > 75%
47 | SPYGSDRLVQL | > 75%
48 | LPTDLFNSVM | > 75%
49 | GPRQVLFPL | > 75%
50 | RPKHFLQML | > 75%

Row | Binder | peptide exchange yield
51 | APALPGQVTI | > 75%
52 | LPAPTSLVL | > 75%
53 | TPISNTGVL | > 75%
54 | APRLALDPDAL | > 75%
55 | APSRLLEL | > 75%
56 | APHAGGALL | > 75%
57 | QPSLKKIIL | > 75%
58 | APAKDARASL | > 75%
59 | VPKADLLTL | > 75%
60 | KPRTPFTTA | > 75%
61 | FPQVGRTAL | > 75%
62 | APLRVHITSL | > 75%
63 | APKFISPASQL | > 75%
64 | VPRNQDWLGVSRQL | > 75%
65 | NPVPVITWYKDNRL | > 75%
66 | SPRQPRLDF | > 75%
67 | NPASRLTAL | > 75%
68 | RPKTSVNLISSL | > 75%
69 | LPRSPPLKVL | > 75%
70 | IPTSRVITL | > 75%
71 | SPYAGSTAF | > 75%
72 | MVLGIGPVL | > 75%
73 | APVVFPAL | > 75%
74 | VPKSLPYVL | > 75%
75 | MPHLGPGILL | > 75%
